{"source": "paper PMC8065807", "origin": "cited, not measured here", "target": "EGFR (Homo sapiens) (UniProt P00533)", "data": [{"substance": "GE11", "values": [{"measurement": "Kd", "value": 22, "unit": "nM"}]}]}
